From patent US20200368361A1

Tests used:
[1] = molecular target: endogenously expressed human MSR1 on PMA-treated THP-1 cells (human) (UniProt P21757); test: ECL cell binding, PMA-treated THP-1
[2] = molecular target: human MSR1 endogenously expressed on PMA-differentiated THP-1 cells (human) (UniProt P21757); test: imaging of PMA-differentiated THP-1 cells, 10 ug/mL antibody, Alexa 488 secondary
Sequence of human MSR1 endogenously expressed on PMA-differentiated THP-1 cells (human) (P21757 whole entry): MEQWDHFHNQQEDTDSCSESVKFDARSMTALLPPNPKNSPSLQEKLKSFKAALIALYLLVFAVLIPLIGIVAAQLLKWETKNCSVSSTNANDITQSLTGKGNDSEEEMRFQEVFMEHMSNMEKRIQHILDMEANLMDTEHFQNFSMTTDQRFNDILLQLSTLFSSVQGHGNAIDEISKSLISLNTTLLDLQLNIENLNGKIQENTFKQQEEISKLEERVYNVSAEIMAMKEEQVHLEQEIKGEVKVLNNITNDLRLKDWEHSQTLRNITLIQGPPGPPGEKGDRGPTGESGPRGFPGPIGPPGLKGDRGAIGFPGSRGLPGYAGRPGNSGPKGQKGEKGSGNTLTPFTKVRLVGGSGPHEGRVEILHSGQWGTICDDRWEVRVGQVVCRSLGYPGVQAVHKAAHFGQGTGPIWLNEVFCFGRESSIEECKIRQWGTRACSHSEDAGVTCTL

Sequence of endogenously expressed human MSR1 on PMA-treated THP-1 cells (human) (P21757 whole entry): as above

B1: H1H21227N-N297Q (antibody, human IgG1, V domains shown)
VH: QVQLVQSGAEVKKPGASVKVSCKVSGYTLTELSIHWVRQVPGKGLEWMGGFDPEEGETIFAQEFRDRVTLTEDTSPDTAYMELSSLKSEDAAVYYCTTPRYCNNGICYDYWGQGTLVTVSS
VL: DIQMTQSPSSLSASVGDRVTITCRASQSISNYLNWYQQKPGKAPKLLIYTASSLQSGVPSRFSGSGSGTDFTLTISSLQTEDFATYYCQQSYSNFPITFGQGTRLEIKR
**Q.** How did the binding signal ratio to isotype control (11 nM) [1] turn out when B1 was run?
**A.** Its binding signal ratio to isotype control (11 nM) is 5 fold.

**Q.** What about the Total Binding at 4° C. [2] of the same binder?
**A.** The Total Binding at 4° C. was 1.8e+06 RFU.

**Q.** And the Total Binding at 37° C. [2]?
**A.** The Total Binding at 37° C. was 4.11e+06 RFU.

B2: H1H21227N-N297D (antibody, human IgG1, V domains shown)
VH: QVQLVQSGAEVKKPGASVKVSCKVSGYTLTELSIHWVRQVPGKGLEWMGGFDPEEGETIFAQEFRDRVTLTEDTSPDTAYMELSSLKSEDAAVYYCTTPRYCNNGICYDYWGQGTLVTVSS
VL: DIQMTQSPSSLSASVGDRVTITCRASQSISNYLNWYQQKPGKAPKLLIYTASSLQSGVPSRFSGSGSGTDFTLTISSLQTEDFATYYCQQSYSNFPITFGQGTRLEIKR
**Q.** How did the binding signal ratio to isotype control (11 nM) [1] turn out when B2 was run?
**A.** The binding signal ratio to isotype control (11 nM) was 6 fold.

B3: H1H21227N (antibody, human IgG1, V domains shown)
VH: QVQLVQSGAEVKKPGASVKVSCKVSGYTLTELSIHWVRQVPGKGLEWMGGFDPEEGETIFAQEFRDRVTLTEDTSPDTAYMELSSLKSEDAAVYYCTTPRYCNNGICYDYWGQGTLVTVSS
VL: DIQMTQSPSSLSASVGDRVTITCRASQSISNYLNWYQQKPGKAPKLLIYTASSLQSGVPSRFSGSGSGTDFTLTISSLQTEDFATYYCQQSYSNFPITFGQGTRLEIKR
**Q.** For B3, which binding signal ratio to isotype control (11 nM) [1] is on record?
**A.** Its binding signal ratio to isotype control (11 nM) is 7 fold.

B4: H1H21231N-N297Q (antibody, human IgG1, V domains shown)
VH: EVQLVESGGGLVQPGGSLRLSCAASGFTFSDHYMDWVRQAPGKGLEWVGRTRNKANSHTTEYTASVTGRFTISRDDSRNSLYLQMNSLKTEDTAVYYCVRAGIIGTLFDYWGQGTLVTVSS
VL: DIQMTQFPSSLSASVGDRVTITCRASQSISSFLNWFQQKPGKAPKFLIYAASSLQSGVPSRFSGSGSGTDFTLTISSLQPEDFATYYCQQSYSSPPITFGQGTRLEIKR
**Q.** Which binding signal ratio to isotype control (11 nM) [1] does the source give for B4 here?
**A.** The binding signal ratio to isotype control (11 nM) was 45 fold.

B5: H1H21231N (antibody, human IgG1, V domains shown)
VH: EVQLVESGGGLVQPGGSLRLSCAASGFTFSDHYMDWVRQAPGKGLEWVGRTRNKANSHTTEYTASVTGRFTISRDDSRNSLYLQMNSLKTEDTAVYYCVRAGIIGTLFDYWGQGTLVTVSS
VL: DIQMTQFPSSLSASVGDRVTITCRASQSISSFLNWFQQKPGKAPKFLIYAASSLQSGVPSRFSGSGSGTDFTLTISSLQPEDFATYYCQQSYSSPPITFGQGTRLEIKR
**Q.** Which binding signal ratio to isotype control (11 nM) [1] does the source give for B5 here?
**A.** Its binding signal ratio to isotype control (11 nM) is 42 fold.

B6: H1H21234N-N297Q (antibody, human IgG1, V domains shown)
VH: QVQLQESGPGLVKPSETLSLTCTVTGGSISRNYWSWIRQPPGKGLEWIGYIYYSGSIDYNPSLKSRVTISVDTSKNQFSLKLSSMTAADTAVYYCARDRWNWKYGMDVWGQGTTVIVSS
VL: EIVLTQSPGTLSLSPGERATLSCRASQTVRNNYLAWYHQKPGQAPRLLIYGASSRATGIPDRFSGSGSGTDFTLTISRLEPEDFTVYYCHQYGNSPWTFGQGTKMEIKR
**Q.** B6 was tested. Which binding signal ratio to isotype control (11 nM) [1] did it give?
**A.** Its binding signal ratio to isotype control (11 nM) is 25 fold.

**Q.** What about the Total Binding at 4° C. [2] of the same binder?
**A.** Its Total Binding at 4° C. is 1.95e+06 RFU.

**Q.** And the Total Binding at 37° C. [2]?
**A.** Its Total Binding at 37° C. is 5.45e+06 RFU.

B7: H1H21234N (antibody, human IgG1, V domains shown)
VH: QVQLQESGPGLVKPSETLSLTCTVTGGSISRNYWSWIRQPPGKGLEWIGYIYYSGSIDYNPSLKSRVTISVDTSKNQFSLKLSSMTAADTAVYYCARDRWNWKYGMDVWGQGTTVIVSS
VL: EIVLTQSPGTLSLSPGERATLSCRASQTVRNNYLAWYHQKPGQAPRLLIYGASSRATGIPDRFSGSGSGTDFTLTISRLEPEDFTVYYCHQYGNSPWTFGQGTKMEIKR
**Q.** For B7, which binding signal ratio to isotype control (11 nM) [1] is on record?
**A.** Its binding signal ratio to isotype control (11 nM) is 18 fold.

B8: H1H27729P-N297Q (antibody, human IgG1, V domains shown)
VH: QVQLVESGGGLVKPGGSLRLSCAASGFIFSDYYMSWIRQAPGKGLEWVSYISSSGTTIYGDSVKGRFTMSRDNAKNSLYLQMNSLRAEDTAVYYCARNYALFDYWGQGTLVTVSS
VL: DIQMTQSPSSLSASVGDRVTITCQASQDISKYLNWYQQKPGKAPKLLIYYTSNLETGVPSRFSGSGSGTDFTFTISSLQPEDIATYYCHQSDYLPFTFGPGTKVDIKR
**Q.** For B8, which binding signal ratio to isotype control (11 nM) [1] is on record?
**A.** The binding signal ratio to isotype control (11 nM) was 8 fold.

**Q.** And the Total Binding at 4° C. [2]?
**A.** Its Total Binding at 4° C. is 1.93e+06 RFU.

**Q.** What about the Total Binding at 37° C. [2] of the same binder?
**A.** Its Total Binding at 37° C. is 6.61e+06 RFU.

B9: H1H27734P-N297Q (antibody, human IgG1, V domains shown)
VH: EVQLVESRGGLVQPGGSLRLSCAASGFTFSSYAMSWVRQAPGKGLEWVSAISGSGGSTFYADSVKGRFTISRDNSKNTVYLQMNSLRAEDTAVYYCAKALVLRFLEWLGDYWGQGTLVTVSS
VL: DIQMTQSPSTLSASVGDRVTITCRASQSISSWLAWFQQKPGKAPKLLIYKASSLESGVPSRFSGSGSGTEFTLTISSLQPDDFATYYCQQYKSYWTFGQGTKVEIKR
**Q.** Which results are given for B9?
**A.** binding signal ratio to isotype control (11 nM) [1]: 21 fold; Total Binding at 4° C. [2]: 483000 RFU; Total Binding at 37° C. [2]: 1.15e+06 RFU

B10: H1H27739P-N297Q (antibody, human IgG1, V domains shown)
VH: EVQLVESGGGLVQPGGSLRLSCTASGFTFSSYAMSWVRQAPGKGLEWVSAISGTGSSTYFTDSVKGRFAISRDNSKNTLYLQMNSLRAEDTAVYYCAKDGEWLSTVTLFDYWGQGTLVTVSS
VL: EIVMTQSPATLSVSPGERATLSCRASQSVSSNLAWYQQKPGQAPRLLIYGASTRATGIPARFSGSGSGTDFTLTISSLQSEDFALYYCQQYFIWPPHPTFGPGTKVDIKR
**Q.** Which results are given for B10?
**A.** binding signal ratio to isotype control (11 nM) [1]: 9 fold; Total Binding at 4° C. [2]: 3.7e+06 RFU; Total Binding at 37° C. [2]: 5.61e+06 RFU

B11: H1H27747P-N297Q (antibody, human IgG1, V domains shown)
VH: QVQLVESGGAVVQPGRSLRLSCAASGFTFSYYGMHWVRQAPGKGLEWVAVISYDGSKKYYADSVKGRFTISRDNSKNTLYLQMNSLRAEDTAVYYCAKDLTVDFYYGMDVWGQGTTVTVSS
VL: DIQMTQSPSSVSASVGDRVTITCRASQGISSWLAWYQQKPGKAPKLLIYATSSLQSGAPSRFSGSGSGTDFTLTISSLQPEDFATYFCQQANSFPYTFGQGTKLEIKR
**Q.** For B11, which binding signal ratio to isotype control (11 nM) [1] is on record?
**A.** The binding signal ratio to isotype control (11 nM) was 13 fold.

**Q.** And the Total Binding at 4° C. [2]?
**A.** The Total Binding at 4° C. was 2.52e+06 RFU.

**Q.** And the Total Binding at 37° C. [2]?
**A.** The Total Binding at 37° C. was 5.92e+06 RFU.

B12: H1H27754P-N297Q (antibody, human IgG1, V domains shown)
VH: EVQLVESGGGLVQPGGSLRLSCAASGFTFRTYAMTWVRQAPGKGLDWVSAITGDGGNTYYADSVKGRFTISRDNSKNTLYLQMNSLRAEDTAIYYCAKDQRFSFALYYFDYWGQGTLVTVSS
VL: DIQMTQSPSSVSASVGDRVTITCRASQGISSWLAWYQQKPGNAPKLLIYAAFSLQSGVPSRFSGSGSGTDFTLTISSLQPEDFATYYCQQANNFPWTFGQGTKVEIKR
**Q.** How did the binding signal ratio to isotype control (11 nM) [1] turn out when B12 was run?
**A.** The binding signal ratio to isotype control (11 nM) was 66 fold.

**Q.** And the Total Binding at 4° C. [2]?
**A.** Its Total Binding at 4° C. is 3.08e+06 RFU.

**Q.** What about the Total Binding at 37° C. [2] of the same binder?
**A.** Its Total Binding at 37° C. is 7.16e+06 RFU.

B13: H2aM25695N (antibody, mouse IgG2a, V domains shown)
VH: QVQLQESGPGLVKPSETLSLTCTVTGGSISRNYWSWIRQPPGKGLEWIGYIYYSGSINYNPSLKSRVTISVDMSKNQFSLKLNSVTAADTAVYYCARDRWNWKYGMDVWGQGTTVIVSS
VL: EIVLTQSPGTLSLSPGERATLSCRASQTVRNSYLAWYHQKPGQAPRLLIYGASSRATGIPDRFSGSGSGTDFTLTISRLEPEDFAVYYCQQYGSSYWTFGQGTKMEIKR
**Q.** For B13, which binding signal ratio to isotype control (11 nM) [1] is on record?
**A.** The binding signal ratio to isotype control (11 nM) was 8 fold.

B14: H2aM21229N (antibody, mouse IgG2a, V domains shown)
VH: EVQLVESGGGLVKPGGSLRLSCAASGFTFSRYSMNWVRQAPGKGLEWVSSISSSSSYIYYGDTVKGRFTISRDNAKKSLYLQMNSLRAEDTAVYYCVRDRGQLVLYFDYWGQGTLVTVSS
VL: DIQMTQSPASLSTSIRDRVTITCRASLSISSFLNWFQQRPGKAPKLLIYVASNLQSGVPSRFSDSGSGTDFTLTISSLQPEDFATYYCQQNYSTPPITFGQGTRLEIK
**Q.** Which binding signal ratio to isotype control (11 nM) [1] does the source give for B14 here?
**A.** The binding signal ratio to isotype control (11 nM) was 56 fold.
